Measurements from US20190022206A1 (UNIVERSITY OF COPENHAGEN, published 2019).

T1: biotinylated HPV16 Avi-L1 VLP, L1avi1 (H4-loop, HPV16) (Human papillomavirus type 16, UniProt P03101 14-505)
T1 construct: also called VLP1; Avi-L1 (H4-βJ coil)
T1 sequence: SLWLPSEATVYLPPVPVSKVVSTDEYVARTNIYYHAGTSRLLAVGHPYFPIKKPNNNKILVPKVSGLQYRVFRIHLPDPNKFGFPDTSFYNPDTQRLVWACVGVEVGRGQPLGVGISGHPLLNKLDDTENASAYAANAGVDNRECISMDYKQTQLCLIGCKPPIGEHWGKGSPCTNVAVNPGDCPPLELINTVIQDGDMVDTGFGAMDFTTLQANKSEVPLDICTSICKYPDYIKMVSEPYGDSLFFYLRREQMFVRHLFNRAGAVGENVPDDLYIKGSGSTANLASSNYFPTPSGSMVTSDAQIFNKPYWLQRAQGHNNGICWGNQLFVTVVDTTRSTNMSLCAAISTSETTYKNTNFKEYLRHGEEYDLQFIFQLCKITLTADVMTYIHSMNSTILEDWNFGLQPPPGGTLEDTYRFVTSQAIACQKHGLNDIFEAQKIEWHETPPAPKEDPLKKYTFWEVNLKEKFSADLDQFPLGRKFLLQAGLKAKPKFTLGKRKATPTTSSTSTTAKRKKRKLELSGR

T2: biotinylated HPV16 Avi-L1 VLP, L1avi3 (DE-loop, HPV16) (Human papillomavirus type 16, UniProt P03101 2-505)
T2 construct: also called VLP3; Avi-L1 (DE)
T2 sequence: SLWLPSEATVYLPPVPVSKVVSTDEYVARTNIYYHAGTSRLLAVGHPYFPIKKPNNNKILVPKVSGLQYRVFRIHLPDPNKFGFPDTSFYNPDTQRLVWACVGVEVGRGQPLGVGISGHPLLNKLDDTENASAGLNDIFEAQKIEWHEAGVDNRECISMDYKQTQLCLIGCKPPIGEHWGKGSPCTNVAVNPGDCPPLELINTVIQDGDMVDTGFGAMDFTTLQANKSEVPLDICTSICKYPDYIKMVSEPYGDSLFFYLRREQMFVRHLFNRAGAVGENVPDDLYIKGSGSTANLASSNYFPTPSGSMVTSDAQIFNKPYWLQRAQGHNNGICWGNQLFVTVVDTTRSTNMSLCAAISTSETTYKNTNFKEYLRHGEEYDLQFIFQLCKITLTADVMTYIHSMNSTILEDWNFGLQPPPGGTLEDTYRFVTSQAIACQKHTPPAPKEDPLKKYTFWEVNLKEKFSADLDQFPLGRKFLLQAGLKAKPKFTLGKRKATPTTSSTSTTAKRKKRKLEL

B1: mSA-Pfs25-HIS (other)
chain: AEAGITGTWYNQHGSTFTVTAGADGNLTGQYENRAQGTGCQNSPYTLTGRYNGTKLEWRVEWNNSTENCHSRTEWRGQYQGGAEARINTQWNLTYEGGSGPATEQGQDTFTKVKGGSNKLYSLFLFLFIQLSIKYNNAKVTVDTVCKRGFLIQMSGHLECKCENDLVLVNEETCEEKVLKCDEKTVNKPCGDFSKCIKIDGNPVSYACKCNLGYDMVNNVCIPNECKNVTCGNGKCILDTSNPVKTGVCSCNIGKVPNVQDQNKCSKDGETKCSLKCLKENETCKAVDGIYKCDCKDGFIIDNESSICTAFSAYNILNLSIMFILFSVCFFIM
notes: also called A10
B2: mSA-RO-HIS (other)
chain: AEAGITGTWYNQHGSTFTVTAGADGNLTGQYENRAQGTGCQNSPYTLTGRYNGTKLEWRVEWNNSTENCHSRTEWRGQYQGGAEARINTQWNLTYEGGSGPATEQGQDTFTKVKGGSTSENRNKRIGGPKLRGNVTSNIKFPSDNKGKIIRGSNDKLNKNSEDVLEQSEKSLVSENVPSGLDIDDIPKESIFIQEDQEGQTHSELNPETSEHSKDLNNNGSKNESSDIISENNKSNKVQNHFESLSDLELLENSSQDNLDKDTISTEPFPNQKHKDLQQDLNDEPLEPFPTQIHKDYKEKNLINEEDSEPFPRQKHKKVDNHNEEKNVFHENGSANGNQGSLKLKSFDEHLKDEKIENEPLVHENLSIPNDPIEQILNQPEQETNIQEQLYNEKQNVEEKQNSQIPSLDLKEPTNEDILPNHNPLENIKQSESEINHVQDHALPKENIIDKLDNQKEHIDQSQHNINVLQENNINNHQLEPQEKPNIESFEPKNIDSEIILPENVETEEIIDDVPSPKHSNHETFEEETSESEHEEAVSEKNAHETVEHEETVSQESNPEKADNDGNVSQNSNNELNENEFVESEKSEHEARSKAKEASSYDYILGWEFGGGVPEHKKEENMLSHLYVSSKDKENISKENDDVLDEKEEEAEETEEEELEEKNEEETESEISEDEEEEEEEEEKEEENDKKKEQEKEQSNENNDQKKDMEAQNLISKNQNNNEKNVKEAAESIMKTLAGLIKGNNQIDSTLKDLVEELSKYFKNHRSHHHHHH
notes: also called A5
B3: mSA-ID1ID2a-HIS (other)
chain: AEAGITGTWYNQHGSTFTVTAGADGNLTGQYENRAQGTGCQNSPYTLTGRYNGTKLEWRVEWNNSTENCHSRTEWRGQYQGGAEARINTQWNLTYEGGSGPATEQGQDTFTKVKGGSNYIKGDPYFAEYATKLSFILNPSDANNPSGETANHNDEACNCNESGISSVGQAQTSGPSSNKTCITHSSIKTNKKKECKDVKLGVRENDKDLKICVIEDTSLSGVDNCCCQDLLGILQENCSDNKRGSSSNDSCDNKNQDECQKKLEKVFASLTNGYKCDKCKSGTSRSKKKWIWKKSSGNEEGLQEEYANTIGLPPRTQSLYLGNLPKLENVCEDVKDINFDTKEKFLAGCLIVSFHEGKNLKKRYPQNKNSGNKENLCKALEYSFADYGDLIKGTSIWDNEYTKDLELNLQNNFGKLFGKYIKKNNTAEQDTSYSSLDELRESWWNTNKKYIWTAMKHGAEMNITTCNADGSVTGSGSSCDDIPTIDLIPQYLRFLQEWVENFCEQRQAKVKDVITNCKSCKESGNKCKTECKTKCKDECEKYKKFIEACGTAGGGIGTAGSPWSKRWDQIYKRYSKHIEDAKRNRKAGTKNCGTSSTTNAAASTDENKCVQSDIDSFFKHLIDIGLTTPSSYLSNVLDDNICGADKAPWTTYTTYTTTEKCNKERDKSKSQSSDTLVVVNVPSPLGNTPYRYKYACQCKIPTNEETCDDRKEYMNQWSCGSARTMKRGYKNDNYELCKYNGVDVKPTTVRSNSSKLDHHHHHH
notes: mSA fused at the amino terminus by Gly-Gly-Ser to the ID1-ID2a domains of VAR2CSA, C-terminal 6x histidine tag; made in baculovirus-infected High-Five cells; also called A4; mSA-VAR2CSA
B4: mSA-PfRH5-HIS (other)
chain: AEAGITGTWYNQHGSTFTVTAGADGNLTGQYENRAQGTGCQNSPYTLTGRYNGTKLEWRVEWNNSTENCHSRTEWRGQYQGGAEARINTQWNLTYEGGSGPATEQGQDTFTKVKGGSLSFENAIKKTKNQENNLTLLPIKSTEEEKDDIKNGKDIKKEIDNDKENIKTNNAKDHSTYIKSYLNTNVNDGLKYLFIPSHNSFIKKYSVFNQINDGMLLNEKNDVKNNEDYKNVDYKNVNFLQYHFKELSNYNIANSIDILQEKEGHLDFVIIPHYTFLDYYKHLSYNSIYHKYSTYGKYIAVDAFIKKINETYDKVKSKCNDIKNDLIATIKKLEHPYDINNKNDDSYRYDISEEIDDKSEETDDETEEVEDSIQDTDSNHTPSNKKKNDLMNRTFKKMMDEYNTKKKKLIKCIKNHENDFNKICMDMKNYGTNLFEQLSCYNNNFCNTNGIRFHYDEYIHKLILSVKSKNLNKDLSDMTNILQQSELLLTNLNKKMGSYIYIDTIKFIHKEMKHIFNRIEYHTKIINDKTKIIQDKIKLNIWRTFQKDELLKRILDMSNEYSLFITSDHLRQMLYNTFYSKEKHLNNIFHHLIYVLQMKFNDVPIKMEYFQTYKKNKPLTQHHHHHH
notes: mSA fused by GGS to PfRH5, C-terminal His tag; also called A9
B5: HIS-RO-mSA (other)
chain: GSTSENRNKRIGGPKLRGNVTSNIKFPSDNKGKIIRGSNDKLNKNSEDVLEQSEKSLVSENVPSGLDIDDIPKESIFIQEDQEGQTHSELNPETSEHSKDLNNNGSKNESSDIISENNKSNKVQNHFESLSDLELLENSSQDNLDKDTISTEPFPNQKHKDLQQDLNDEPLEPFPTQIHKDYKEKNLINEEDSEPFPRQKHKKVDNHNEEKNVFHENGSANGNQGSLKLKSFDEHLKDEKIENEPLVHENLSIPNDPIEQILNQPEQETNIQEQLYNEKQNVEEKQNSQIPSLDLKEPTNEDILPNHNPLENIKQSESEINHVQDHALPKENIIDKLDNQKEHIDQSQHNINVLQENNINNHQLEPQEKPNIESFEPKNIDSEIILPENVETEEIIDDVPSPKHSNHETFEEETSESEHEEAVSEKNAHETVEHEETVSQESNPEKADNDGNVSQNSNNELNENEFVESEKSEHEAGGSGAEAGITGTWYNQHGSTFTVTAGADGNLTGQYENRAQGTGCQNSPYTLTGRYNGTKLEWRVEWNNSTENCHSRTEWRGQYQGGAEARINTQWNLTYEGGSGPATEQGQDTFTKVK
notes: also called A6
B6: HIS-GMZ2T:ggsmSA (other)
chain: GSTSENRNKRIGGPKLRGNVTSNIKFPSDNKGKIIRGSNDKLNKNSEDVLEQSEKSLVSENVPSGLDIDDIPKESIFIQEDQEGQTHSELNPETSEHSKDLNNNGSKNESSDIISENNKSNKVQNHFESLSDLELLENSSQDNLDKDTISTEPFPNQKHKDLQQDLNDEPLEPFPTQIHKDYKEKNLINEEDSEPFPRQKHKKVDNHNEEKNVFHENGSANGNQGSLKLKSFDEHLKDEKIENEPLVHENLSIPNDPIEQILNQPEQETNIQEQLYNEKQNVEEKQNSQIPSLDLKEPTNEDILPNHNPLENIKQSESEINHVQDHALPKENIIDKLDNQKEHIDQSQHNINVLQENNINNHQLEPQEKPNIESFEPKNIDSEIILPENVETEEIIDDVPSPKHSNHETFEEETSESEHEEAVSEKNAHETVEHEETVSQESNPEKADNDGNVSQNSNNELNENEFVESEKSEHEARSKTKEYAEKAKNAYEKAKNAYQKANQAVLKAKEASSYDYILGWEFGGGVPEHKKEENMLSHLYVSSKDKENISKENDDVLDEKEEEAEETEEEELEGGSGAEAGITGTWYNQHGSTFTVTAGADGNLTGQYENRAQGTGCQNSPYTLTGRYNGTKLEWRVEWNNSTENCHSRTEWRGQYQGGAEARINTQWNLTYEGGSGPATEQGQDTFTKVK
notes: also called A8
B7: HIS-GMZ2ggsmSA (other)
chain: GSTSENRNKRIGGPKLRGNVTSNIKFPSDNKGKIIRGSNDKLNKNSEDVLEQSEKSLVSENVPSGLDIDDIPKESIFIQEDQEGQTHSELNPETSEHSKDLNNNGSKNESSDIISENNKSNKVQNHFESLSDLELLENSSQDNLDKDTISTEPFPNQKHKDLQQDLNDEPLEPFPTQIHKDYKEKNLINEEDSEPFPRQKHKKVDNHNEEKNVFHENGSANGNQGSLKLKSFDEHLKDEKIENEPLVHENLSIPNDPIEQILNQPEQETNIQEQLYNEKQNVEEKQNSQIPSLDLKEPTNEDILPNHNPLENIKQSESEINHVQDHALPKENIIDKLDNQKEHIDQSQHNINVLQENNINNHQLEPQEKPNIESFEPKNIDSEIILPENVETEEIIDDVPSPKHSNHETFEEETSESEHEEAVSEKNAHETVEHEETVSQESNPEKADNDGNVSQNSNNELNENEFVESEKSEHEARSKAKEASSYDYILGWEFGGGVPEHKKEENMLSHLYVSSKDKENISKENDDVLDEKEEEAEETEEEELEEKNEEETESEISEDEEEEEEEEEKEEENDKKKEQEKEQSNENNDQKKDMEAQNLISKNQNNNEKNVKEAAESIMKTLAGLIKGNNQIDSTLKDLVEELSKYFKNHGGSGAEAGITGTWYNQHGSTFTVTAGADGNLTGQYENRAQGTGCQNSPYTLTGRYNGTKLEWRVEWNNSTENCHSRTEWRGQYQGGAEARINTQWNLTYEGGSGPATEQGQDTFTKVK
notes: also called A7

These binders were tested against T1, biotinylated HPV16 Avi-L1 VLP, L1avi1 … (assay: biotinylated VLPs mixed with excess mSA-antigen, density gradient ultracentrifugation, SDS-PAGE).

Row | Binder | binding result
1 | B1 | no binding
2 | B2 | no binding
3 | B3 | no binding
4 | B4 | no binding
5 | B5 | no binding
6 | B6 | no binding
7 | B7 | no binding

The binders below were run against T2, biotinylated HPV16 Avi-L1 VLP, L1avi3 … (assay: coupling: biotinylated VLPs mixed with excess mSA-antigen, density gradient ultracentrifugation, SDS-PAGE).

Row | Binder | binding result
8 | B3 | binds
9 | B4 | binds
10 | B5 | binds
11 | B6 | binds
12 | B7 | binds
